{
  "source": "patent US12281147",
  "key": {"[1]": {"target": "human IL-21R on T cells of primary human PBMCs (human) (UniProt Q9HBE5)", "experiment": "cell-based or functional assay"}, "[2]": {"target": "mouse IL-21R on T cells of mouse splenocytes (mouse) (UniProt Q9JHX3)", "experiment": "cell-based or functional assay"}, "[3]": {"target": "mouse IL-21R, His-tagged (BLI antigen) (mouse) (UniProt Q9JHX3)", "experiment": "BLI"}, "[4]": {"target": "recombinant human IL-21R His tag (Acro Biosystems) (human) (UniProt Q9HBE5)", "experiment": "BLI"}},
  "data": [
    {"substance": "IL-21_human_E72S Fc fusion protein (from UniProt Q9HBE4 30-162)", "values": [
      {"measurement": "Human T cell EC50 (pM), pSTAT3 phosflow", "setting": "[1]", "result": 31, "unit": "pM"},
      {"measurement": "Mouse T cell EC50 (pM), pSTAT3 phosflow", "setting": "[2]", "result": 47000, "unit": "pM"},
      {"measurement": "Kd", "setting": "[3]", "result": 7.75, "unit": "nM"}
    ]},
    {"substance": "IL-21_human_R34S Fc fusion protein (from UniProt Q9HBE4 30-162)", "values": [
      {"measurement": "Human T cell EC50 (pM), pSTAT3 phosflow", "setting": "[1]", "result": 5.6, "unit": "pM"},
      {"measurement": "Mouse T cell EC50 (pM), pSTAT3 phosflow", "setting": "[2]", "result": 8500, "unit": "pM"},
      {"measurement": "Kd", "setting": "[3]", "result": 28.7, "unit": "nM"},
      {"measurement": "Kd", "setting": "[4]", "result": 31.5, "unit": "nM"}
    ]},
    {"substance": "IL-21_human_Y52Q Fc fusion protein (from UniProt Q9HBE4 30-162)", "values": [
      {"measurement": "Human T cell EC50 (pM), pSTAT3 phosflow", "setting": "[1]", "result": 8.7, "unit": "pM"},
      {"measurement": "Mouse T cell EC50 (pM), pSTAT3 phosflow", "setting": "[2]", "result": 9200, "unit": "pM"},
      {"measurement": "Kd", "setting": "[3]", "result": 19.4, "unit": "nM"},
      {"measurement": "Kd", "setting": "[4]", "result": 14.4, "unit": "nM"}
    ]}
  ]
}
